This note sets out measurements from US20040018558A1.

The target of test [1] is light-activated rhodopsin (bovine rod outer segment membranes) (bovine) (UniProt P02699). The experiment in a line: ELISA, MBP fusion protein on immobilised light-activated rhodopsin. Background: In an ELISA, binding on a coated surface is turned into a signal by an enzyme label.
For test [2], the target named is human thrombin receptor (PAR1) (human) (UniProt P25116). The experiment in a line: ELISA, purified MBP-Gαq on purified reconstituted PAR1 with thrombin receptor activating peptide.
Sequence of human thrombin receptor (PAR1) (human) (P25116 42-425): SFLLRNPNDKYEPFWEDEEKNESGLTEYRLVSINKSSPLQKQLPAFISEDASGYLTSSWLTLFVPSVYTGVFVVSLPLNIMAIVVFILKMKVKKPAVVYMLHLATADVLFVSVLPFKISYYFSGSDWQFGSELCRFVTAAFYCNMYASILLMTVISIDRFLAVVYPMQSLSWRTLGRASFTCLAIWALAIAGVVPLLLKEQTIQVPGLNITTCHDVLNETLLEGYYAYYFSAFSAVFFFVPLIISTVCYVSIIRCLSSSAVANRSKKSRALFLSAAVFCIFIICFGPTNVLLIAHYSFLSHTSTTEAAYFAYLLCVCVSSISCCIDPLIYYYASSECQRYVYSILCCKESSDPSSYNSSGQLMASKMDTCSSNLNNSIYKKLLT

Sequence of light-activated rhodopsin (bovine rod outer segment membranes) (bovine) (P02699 whole entry, the tested form may be a part): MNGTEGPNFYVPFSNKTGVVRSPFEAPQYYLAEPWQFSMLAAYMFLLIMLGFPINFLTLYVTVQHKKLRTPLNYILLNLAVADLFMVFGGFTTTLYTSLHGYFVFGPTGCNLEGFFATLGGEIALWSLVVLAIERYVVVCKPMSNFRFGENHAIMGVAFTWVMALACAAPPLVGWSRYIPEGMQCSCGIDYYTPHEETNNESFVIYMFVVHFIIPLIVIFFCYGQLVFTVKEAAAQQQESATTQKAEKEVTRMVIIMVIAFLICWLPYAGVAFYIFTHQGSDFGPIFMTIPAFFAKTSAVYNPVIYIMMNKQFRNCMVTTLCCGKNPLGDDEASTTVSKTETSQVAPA

“MBP-Gαt340-350K341R fusion protein (pELM17)”: the IC50 (usually the concentration at which inhibition is half-maximal) in test [1] was 6 µM.

For “maltose binding protein-Gαq (MBP-Gαq), native Gq peptide fusion”, the 50% inhibitory concentration (IC50) in test [2] was 0.214 µM.
